We go through six molecules from patent US20200369765A1 (INNATE PHARMA, published 2020).

For assay [1], the target named is T1, Human Siglec-9 mutant M11 (human, UniProt Q9Y336 18-463).
T1 construct: Expressed on HEK293T cells; also called Mutant 11
In words: flow cytometry, HEK293T transfectants; '-' indicates full loss of binding. In general terms: In flow cytometry, cells or beads pass a laser one at a time.

The target in assay [2] is T2, Human Siglec-9 mutant M10 (human, UniProt Q9Y336 18-463).
T2 construct: Expressed on HEK293T cells; also called Mutant 10
The assay is described as above.

Assay [3] has as its target T3, Human Siglec-9 mutant M9 (human, UniProt Q9Y336 18-463).
T3 construct: Expressed on HEK293T cells; also called Mutant 9
The description is as above.

A further assay addresses T4, Siglec-7 Fc protein (human).
T4 construct: Produced in CHO cells; also called human Siglec-7 Fc
In words: ELISA, blocking: Siglec-7 Fc captured on protein A, mAb dilution series, then biotinylated polymer Sia2, streptavidin-peroxidase (top panel); partial inhibition. As to the method:
(§1) Blocking of the interaction between Siglec-7 and -9 and sialylated ligands by anti Siglec-7/9 antibodies was tested on ELISA assays. Siglec proteins were Siglec-7 human Fc and Siglec-9 Human Fc recombinant proteins, and ligands were biotinylated polymers with sialylated trisaccharides (Neu5Aca2-3Galb1-4GcNAcb-PAA-biotin Glycotech #01-077 referred to as “Sia1” and 6′-Sialyllactose-PAA-biotin Glycotech #01-039 (referred to as “Sia2”). Briefly, Protein A was coated on ELISA plates over night at 4° C. After 3 washes and saturation, Siglec-7 Fc and Siglec-9 Fc were added at 0.8 μg/well at RT for 1H30. After 3 washes, mAbs were added at 20 ug/ml and a series of dilution of 1:5. After 3 washes, biotinylated sialylated polymers were added for 3 hours at room temperature. After 3 washes, Streptavidin-Peroxidase (Beckman) was added at 1:1000. […] The absorbance was read at 450 nm.
In general terms: An ELISA detects its analyte on a solid surface through an enzyme-linked reagent.

The next assay concerns the target T5, Human Siglec-9 mutant M5 (human, UniProt Q9Y336 18-463).
T5 construct: Expressed on HEK293T cells; also called Mutant 5
In words: flow cytometry, HEK293T transfectants.

The target of the next assay is T6, Human Siglec-9 mutant M2 (human, UniProt Q9Y336 18-463).
T6 construct: Expressed on HEK293T cells; also called Mutant 2
The assay is described as follows: flow cytometry, HEK293T transfectants.

Assay [4] deals with T7, Human Siglec-9 mutant M14 (human, UniProt Q9Y336 18-463).
T7 construct: Expressed on HEK293T cells; also called Mutant 14
The assay is described as follows: flow cytometry, HEK293T transfectants.

Another assay has as its target T8, Human Siglec-9 mutant M6 (human, UniProt Q9Y336 18-463).
T8 construct: Expressed on HEK293T cells; also called Mutant 6
The assay is described as follows: flow cytometry, HEK293T transfectants.

For another assay, the target named is T9, Human Siglec-9 mutant M8 (human, UniProt Q9Y336 18-463).
T9 construct: Expressed on HEK293T cells; also called Mutant 8
In words: flow cytometry, HEK293T transfectants.

The target in the next assay is T10, Human Siglec-9 mutant M3 (human, UniProt Q9Y336 18-463).
T10 construct: Expressed on HEK293T cells; also called Mutant 3
In words: flow cytometry, HEK293T transfectants.

Assay [5] concerns the target T11, Human Siglec-9 mutant M15 (human, UniProt Q9Y336 18-463).
T11 construct: Expressed on HEK293T cells; also called Mutant 15
In words: flow cytometry, HEK293T transfectants.

The next assay deals with T12, Siglec-9 Fc protein (human).
T12 construct: Produced in CHO cells; also called human Siglec-9 Fc
In words: ELISA, blocking: Siglec-9 Fc captured on protein A, mAb dilution series, then biotinylated polymer Sia1 (Neu5Aca2-3Galb1-4GlcNAcb-PAA-biotin), streptavidin-peroxidase (top panel). On the procedure:
as §1

The next assay addresses T13, Human Siglec-7 (human, UniProt Q9Y286 19-467).
T13 construct: Expressed on transfected CHO cells; also called huSiglec-7; CD328
In words: flow cytometry, CHO transfectants.

For assay [6], the target named is T1, Human Siglec-9 mutant M11. The assay is described as follows: flow cytometry, HEK293T transfectants.
Assay [7] deals with T2, Human Siglec-9 mutant M10. In words: flow cytometry, HEK293T transfectants.
In assay [8] the target is T3, Human Siglec-9 mutant M9. In words: flow cytometry, HEK293T transfectants.

T11 sequence (Q9Y336 other isoform, or with tags, fused parts or gaps mutant): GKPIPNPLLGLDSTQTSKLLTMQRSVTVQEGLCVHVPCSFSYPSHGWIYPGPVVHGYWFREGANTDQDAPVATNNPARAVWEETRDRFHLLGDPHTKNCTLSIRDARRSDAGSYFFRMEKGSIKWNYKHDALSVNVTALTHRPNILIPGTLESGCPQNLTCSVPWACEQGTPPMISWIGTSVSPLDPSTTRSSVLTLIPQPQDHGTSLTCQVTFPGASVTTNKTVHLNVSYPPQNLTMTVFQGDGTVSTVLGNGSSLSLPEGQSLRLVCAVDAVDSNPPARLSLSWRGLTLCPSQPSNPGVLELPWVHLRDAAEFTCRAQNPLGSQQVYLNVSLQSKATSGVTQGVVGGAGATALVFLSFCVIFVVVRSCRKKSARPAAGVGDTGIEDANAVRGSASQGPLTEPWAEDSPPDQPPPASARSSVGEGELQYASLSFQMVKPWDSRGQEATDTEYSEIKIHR
T6 sequence (Q9Y336 other isoform, or with tags, fused parts or gaps mutant): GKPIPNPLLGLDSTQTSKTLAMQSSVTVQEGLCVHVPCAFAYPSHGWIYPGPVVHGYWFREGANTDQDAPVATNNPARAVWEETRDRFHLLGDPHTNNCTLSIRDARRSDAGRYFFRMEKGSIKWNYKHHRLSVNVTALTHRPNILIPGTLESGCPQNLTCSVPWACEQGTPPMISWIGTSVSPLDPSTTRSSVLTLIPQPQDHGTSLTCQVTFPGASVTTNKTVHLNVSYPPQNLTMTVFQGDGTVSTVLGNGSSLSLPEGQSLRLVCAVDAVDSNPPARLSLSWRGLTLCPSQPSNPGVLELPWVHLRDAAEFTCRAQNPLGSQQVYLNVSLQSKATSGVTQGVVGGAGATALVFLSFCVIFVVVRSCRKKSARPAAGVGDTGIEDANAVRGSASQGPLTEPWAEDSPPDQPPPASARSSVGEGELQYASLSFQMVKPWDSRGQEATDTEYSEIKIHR
T7 sequence (Q9Y336 other isoform, or with tags, fused parts or gaps mutant): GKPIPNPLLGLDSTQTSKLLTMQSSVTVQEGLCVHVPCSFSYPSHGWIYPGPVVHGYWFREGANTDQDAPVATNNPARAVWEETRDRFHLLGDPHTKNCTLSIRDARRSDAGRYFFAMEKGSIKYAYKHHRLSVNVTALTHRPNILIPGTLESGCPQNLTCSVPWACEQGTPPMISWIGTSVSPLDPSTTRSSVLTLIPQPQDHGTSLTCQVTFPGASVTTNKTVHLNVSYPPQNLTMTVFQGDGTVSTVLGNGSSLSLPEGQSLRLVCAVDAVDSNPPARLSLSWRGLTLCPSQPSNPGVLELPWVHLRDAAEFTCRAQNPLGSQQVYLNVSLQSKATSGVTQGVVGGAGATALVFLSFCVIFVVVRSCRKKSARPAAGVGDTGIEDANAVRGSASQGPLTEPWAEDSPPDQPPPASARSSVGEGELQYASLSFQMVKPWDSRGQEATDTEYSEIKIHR
T9 sequence (Q9Y336 other isoform, or with tags, fused parts or gaps mutant): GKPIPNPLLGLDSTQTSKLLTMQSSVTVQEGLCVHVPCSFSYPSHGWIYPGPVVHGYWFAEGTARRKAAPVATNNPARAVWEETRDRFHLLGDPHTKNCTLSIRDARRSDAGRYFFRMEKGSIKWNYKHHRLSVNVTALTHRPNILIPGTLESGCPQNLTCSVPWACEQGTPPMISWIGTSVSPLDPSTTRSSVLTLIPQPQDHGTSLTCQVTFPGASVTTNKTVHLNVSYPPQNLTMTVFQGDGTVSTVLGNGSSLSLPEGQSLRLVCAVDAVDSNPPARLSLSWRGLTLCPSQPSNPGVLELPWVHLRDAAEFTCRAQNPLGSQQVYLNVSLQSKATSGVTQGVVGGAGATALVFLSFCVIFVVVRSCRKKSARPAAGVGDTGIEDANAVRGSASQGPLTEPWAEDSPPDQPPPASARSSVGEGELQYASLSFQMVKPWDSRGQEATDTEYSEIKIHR
T1 sequence (Q9Y336 other isoform, or with tags, fused parts or gaps mutant): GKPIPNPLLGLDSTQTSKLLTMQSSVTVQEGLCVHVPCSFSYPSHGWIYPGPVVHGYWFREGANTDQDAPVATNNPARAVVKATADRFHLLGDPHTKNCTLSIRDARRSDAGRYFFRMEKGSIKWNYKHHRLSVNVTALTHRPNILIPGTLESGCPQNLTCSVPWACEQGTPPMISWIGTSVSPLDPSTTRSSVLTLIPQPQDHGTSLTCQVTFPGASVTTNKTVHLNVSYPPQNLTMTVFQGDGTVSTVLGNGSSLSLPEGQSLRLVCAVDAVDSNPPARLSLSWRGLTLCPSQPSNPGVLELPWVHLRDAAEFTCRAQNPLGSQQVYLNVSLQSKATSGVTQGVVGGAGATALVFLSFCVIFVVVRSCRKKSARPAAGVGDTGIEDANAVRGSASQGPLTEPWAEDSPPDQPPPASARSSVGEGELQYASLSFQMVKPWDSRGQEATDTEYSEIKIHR
T3 sequence (Q9Y336 other isoform, or with tags, fused parts or gaps mutant): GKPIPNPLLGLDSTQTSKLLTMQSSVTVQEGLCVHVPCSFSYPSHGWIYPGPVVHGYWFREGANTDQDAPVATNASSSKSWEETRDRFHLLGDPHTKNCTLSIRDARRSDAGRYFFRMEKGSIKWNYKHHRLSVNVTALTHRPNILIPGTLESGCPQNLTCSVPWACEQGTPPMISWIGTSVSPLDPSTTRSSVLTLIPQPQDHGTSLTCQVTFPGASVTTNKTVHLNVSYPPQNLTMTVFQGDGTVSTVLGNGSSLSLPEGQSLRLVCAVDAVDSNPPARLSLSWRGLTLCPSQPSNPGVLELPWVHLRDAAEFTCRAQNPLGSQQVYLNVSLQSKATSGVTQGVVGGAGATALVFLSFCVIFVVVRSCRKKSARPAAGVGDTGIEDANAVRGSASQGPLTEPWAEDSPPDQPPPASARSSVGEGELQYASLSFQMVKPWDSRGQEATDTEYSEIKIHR
T10 sequence (Q9Y336 other isoform, or with tags, fused parts or gaps mutant): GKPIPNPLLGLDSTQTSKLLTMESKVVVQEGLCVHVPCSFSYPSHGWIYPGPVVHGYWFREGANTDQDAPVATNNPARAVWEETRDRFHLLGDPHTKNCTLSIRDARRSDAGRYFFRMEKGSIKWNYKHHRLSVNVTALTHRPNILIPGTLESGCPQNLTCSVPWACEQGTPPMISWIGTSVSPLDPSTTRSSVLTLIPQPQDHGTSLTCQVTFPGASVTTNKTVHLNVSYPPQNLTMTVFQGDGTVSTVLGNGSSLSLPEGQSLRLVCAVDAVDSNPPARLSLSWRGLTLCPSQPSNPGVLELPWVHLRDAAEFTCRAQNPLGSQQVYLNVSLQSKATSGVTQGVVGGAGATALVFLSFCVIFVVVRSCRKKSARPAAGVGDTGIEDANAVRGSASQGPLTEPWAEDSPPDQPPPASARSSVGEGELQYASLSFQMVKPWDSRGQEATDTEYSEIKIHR
T5 sequence (Q9Y336 other isoform, or with tags, fused parts or gaps mutant): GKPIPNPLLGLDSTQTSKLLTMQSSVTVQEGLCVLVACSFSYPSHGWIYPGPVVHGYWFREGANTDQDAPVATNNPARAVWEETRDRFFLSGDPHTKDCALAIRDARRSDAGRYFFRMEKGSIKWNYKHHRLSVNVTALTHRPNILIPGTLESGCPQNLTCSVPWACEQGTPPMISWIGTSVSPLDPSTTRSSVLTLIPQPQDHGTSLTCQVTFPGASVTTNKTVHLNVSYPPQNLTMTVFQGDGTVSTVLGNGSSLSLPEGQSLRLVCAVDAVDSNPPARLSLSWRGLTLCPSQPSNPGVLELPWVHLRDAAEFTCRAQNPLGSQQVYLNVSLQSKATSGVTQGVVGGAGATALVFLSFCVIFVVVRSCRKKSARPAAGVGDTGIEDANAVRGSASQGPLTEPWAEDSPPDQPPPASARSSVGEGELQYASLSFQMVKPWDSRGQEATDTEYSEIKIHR
T8 sequence (Q9Y336 other isoform, or with tags, fused parts or gaps mutant): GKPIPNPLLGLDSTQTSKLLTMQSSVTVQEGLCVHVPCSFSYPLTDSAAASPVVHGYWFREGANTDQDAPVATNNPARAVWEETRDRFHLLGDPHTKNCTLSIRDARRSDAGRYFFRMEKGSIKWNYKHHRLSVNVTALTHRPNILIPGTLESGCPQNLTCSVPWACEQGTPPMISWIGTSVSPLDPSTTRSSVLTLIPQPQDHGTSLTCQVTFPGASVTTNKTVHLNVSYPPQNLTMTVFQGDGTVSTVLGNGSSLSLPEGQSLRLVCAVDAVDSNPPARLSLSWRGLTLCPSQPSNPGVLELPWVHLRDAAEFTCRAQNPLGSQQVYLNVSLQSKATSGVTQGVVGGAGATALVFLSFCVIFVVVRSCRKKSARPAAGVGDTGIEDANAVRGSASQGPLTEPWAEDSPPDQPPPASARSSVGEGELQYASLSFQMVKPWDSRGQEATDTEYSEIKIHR
T2 sequence (Q9Y336 other isoform, or with tags, fused parts or gaps mutant): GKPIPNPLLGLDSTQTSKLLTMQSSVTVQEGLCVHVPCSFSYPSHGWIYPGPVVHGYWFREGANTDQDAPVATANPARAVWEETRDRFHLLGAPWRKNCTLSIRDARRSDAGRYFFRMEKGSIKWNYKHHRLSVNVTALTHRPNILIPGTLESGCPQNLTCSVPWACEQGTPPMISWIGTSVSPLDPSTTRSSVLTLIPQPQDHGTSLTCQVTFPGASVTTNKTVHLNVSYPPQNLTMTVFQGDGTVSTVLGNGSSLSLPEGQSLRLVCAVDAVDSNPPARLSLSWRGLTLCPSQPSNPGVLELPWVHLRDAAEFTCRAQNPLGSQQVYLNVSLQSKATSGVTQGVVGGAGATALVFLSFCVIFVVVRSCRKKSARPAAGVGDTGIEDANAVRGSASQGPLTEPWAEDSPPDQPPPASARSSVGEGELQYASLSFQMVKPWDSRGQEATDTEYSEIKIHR

B1: mAb1 (antibody, human IgG1, V domains shown)
VH: DVQLQESGPGLVKPSQSLSLTCTVTGYSITGGFAWNWIRQFPGNTLEWMGYIGYGGSTSYNPSLNSRISITRDTSKNHFFLQFNSVTTDDSATYYCARGDYLFAYWGQGTLVTVSA
VL: DIVMTQSHKFMSTSVGDRVSITCKASQDVNTAVAWYQQKPGQSPKLLIYSASYRYTGVPDRFTGSGSGTDFTFTISSVQAEDLAVYYCQQHYSTPRTFGGGTKLEIK
For the molecule B1, the binding result is given as “no binding” in [1]; “no binding” in assay [2]; “no binding” in the assay with Human Siglec-9 mutant M9 [3]; “binds” with Human Siglec-9 mutant M5; “binds” with Human Siglec-9 mutant M2; “binds” in [4]. Further, the binding result (with Human Siglec-9 mutant M6; in the assay with Human Siglec-9 mutant M8; with Human Siglec-9 mutant M3; in [5]) was “binds” throughout. For the same molecule, the “IC50 (read off the curve)” value with Siglec-7 Fc protein is about 3 mg/L.

B2: mAb3 (antibody, human IgG1, V domains shown)
VH: EVQLLETGPGLVKPSQSLSLTCTVTGYSITGGFAWNWIRQFPGNTLEWMGYIGYGGSTSYNPSLNSRISITRDTSKNHFFLQFNSVTTEDSATYYCARGDYLFAYWGQGTLVTVSA
VL: DILMTQSPASLSASVGETVSITCRASGNIHNYLAWYLQRQGKSPQLLVYNAKTLADGVPSRFSGTGSGTQFSLKINSLQPEDFGSYYCQHFWSTPRTFGGGTKLEIK
In the case of B2, the binding result in assay [1] is recorded as “no binding”; in [2], “no binding”; with Human Siglec-9 mutant M9 [3] it was “no binding”; with Siglec-9 Fc protein, “binds”; with Human Siglec-9 mutant M5, “binds”; in the assay with Human Siglec-9 mutant M2, “binds”. The binding result (in [4]; with Human Siglec-9 mutant M6; with Human Siglec-9 mutant M8; in the assay with Human Siglec-9 mutant M3; in assay [5]) was “binds” in each case.

B3: mAb2 (antibody, human IgG1, V domains shown)
VH: EVQLQESGPGLVKPSQSLSLTCTVTGYSITGGFAWNWIRQFPGNTLEWMGYIGYGGSTSYNPSLNSRISITRDTSKNHFFLQFNSVTTEDSATYYCARGDYLFAYWGQGTLVTVSA
VL: DIVMTQSHKFMSTSVGDRVSITCKASQDVNTAVAWYQQKPGQSPKLLIYSASYRYTGVPDRFTGSGSGTDFTFTISSVQAEDLAVYYCQQHYSTPRTFGGGTKLEIK
Consider B3, for which the binding result in [1] is on record as “no binding”; in assay [2], “no binding”; with Human Siglec-9 mutant M9 [3], “no binding”; in the assay with Human Siglec-9 mutant M5 it was “binds”; with Human Siglec-9 mutant M2 it was “binds”; in [4] it was “binds”. In addition, the binding result (with Human Siglec-9 mutant M6; with Human Siglec-9 mutant M8; with Human Siglec-9 mutant M3; in assay [5]) was “binds” in each case.

B4: mAbB (antibody, human IgG1, V domains shown)
VH: QVQLQQPGAELVKPGASVKLSCKASVYTFTSYWMHWVKQRPGQGLEWIGEINPSNGHTNYNEKFKTKAKLTVDKSSSTAYMQLSSLTSEDSAVYFCANGVETYDFDDAMDYWGQGTSVTVSS
VL: DIQMTQTTSSLSASLGDRVTISCRASQDINNYLNWYQQKPDGTVKLLIYFTSRLHSGVPSRFSGSGSGTDYSLTISNLEQEDIATYFCQQGDTFPFTFGGGTKLEIK
Take B4: the binding result with Human Siglec-7 is “no binding”; in assay [6], “binds”; in the assay with Human Siglec-9 mutant M5, “binds”; with Human Siglec-9 mutant M2 it was “binds”; in the assay with Human Siglec-9 mutant M6, “binds”; with Human Siglec-9 mutant M8, “binds”. The binding result (in [7]; in the assay with Human Siglec-9 mutant M3; with Human Siglec-9 mutant M9 [8]; in assay [5]) was “binds” in each case.

B5: mAbF (antibody, human IgG1, V domains shown)
VH: QVQLQQSGPEVVRPGVSVKISCKGSGYTFTDYSMHWVKQSHAKSLEWIGVISTYNGNTNYNQKFKGKATMTVDKSSSTAYMELARLTSEDSAIYYCARRGYYGSSSWFGYWGQGTLVTVSA
VL: DIVMTQSQKFMSTSVGDRVSVTCKASQNVGTDVAWYQQKPGQSPEALIYSASYRYSGVPDRFTGSGSGADFTLTISNVQSEDLAEYFCQQYNSFPYTFGGGTKLEIK
Take B5: the binding result in assay [1] is given as “no binding”; in [2] it was “no binding”; with Human Siglec-9 mutant M9 [3], “no binding”; in the assay with Human Siglec-7 it was “no binding”; in the assay with Human Siglec-9 mutant M5 it was “binds”; with Human Siglec-9 mutant M2, “binds”. For the same molecule, the binding result (in assay [4]; with Human Siglec-9 mutant M6; with Human Siglec-9 mutant M3; in assay [5]) was “binds” each time.

B6: mAbE (antibody, human IgG1, V domains shown)
VH: DVQLVESGGGLVQPGGSRKLSCAASGFTFSTFGMHWVRQAPEKGLEWVAYISSGSNAIYYADTVKGRFTISRDNPKNTLFLQMTSLRSEDTAMYYCASPGYGAWFAYWGQGTLVTVSA
VL: ENVLTQSPAIMSASPGEKVTMTCRASSSVSSAYLHWYQQKSGASPKLWIYSTSNLASGVPARFSGSGSGTSYSLTISSVEAEDAATYYCQQYSAYPYTFGGGTKLEIK
For B6, the binding result is reported as “no binding” in assay [1]; “no binding” in [2]; “no binding” with Human Siglec-9 mutant M9 [3]; “no binding” in the assay with Human Siglec-7; “binds” in the assay with Human Siglec-9 mutant M5; “binds” in the assay with Human Siglec-9 mutant M2. The binding result (in assay [4]; with Human Siglec-9 mutant M6; in the assay with Human Siglec-9 mutant M3; in assay [5]) was “binds” in each case.
